The data set in a line: yeast display, Sf9 membrane polyspecificity reagent, FACS + sequencing; frameworks hold sequencing errors. The method in brief: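 After 36–48 hours of galactose induction, yeast (Saccharomyces cerevisiae BJ5465) displaying a synthetic nanobody library were stained at 4 °C for 1 hour with 10% biotinylated, detergent-solubilized Sf9 membrane reagent. Streptavidin microbeads enriched the stained cells before FACS sorting into low and high (top ~1%) gates on anti-HA and streptavidin fluorescence. Each clone's polyreactivity label reflects its gate of origin.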
For “QVQLVESGGGLVQAGGSLRLSCAASGIILYGYSMGWYRQAPGKERELVAAISWDGGSTYYADSVKGRFTISRDNAKNTVYLQMISLIPEDTAVYYCNALGGSEYDYWGQGTQVTVSS”, the “polyreactivity (PSR sort gate)” value was “low polyreactivity”. “QVQLVESGGGLVQAGGSLRLSCAASGIILYPNAMVWYRQAPGKERELVAGITRSGVSTYYADSVKGRFTISRDNAKNTVYLQMNSLNPEDTAVYYCAKDRIYGSKGEDDDYWGQGTQVTVSS”: the “polyreactivity (PSR sort gate)” value is given as “low polyreactivity”. Turning to “QVQLVESGGGLVQAGGSLRLSCAASGIILYRNVLGWYRQAPGKERELVASINRGSDSTYYADSVKGRFTISRDNEKNTVYLHMNSLKPEDTAVYYCAAVYVYGVEMDYWGQGTQVTVSS”, the “polyreactivity (PSR sort gate)” value is given as “low polyreactivity”. The value for “QVQLVESGGGLVQAGGSLRLSCAASGIILYRYAMGWYRQAPGKERELVAAISRRGGSTYYADSVKGRFTISRDNAKNTVYLQMNSLKPEDTAVYYCATRSTFYSRWGEVYTYYYWGQGTQVTVSS” was “high polyreactivity”.

“QVQLVESGGGLVQAGGSLRLSCAASGIISPFYAMGWYRPAPGNERELVADISTGGTTTYADSVKGRFTISRDNAKNTVYLKMNSLKPEDTAVYYCNAEVSLTYYWIVWASYDYWGQGTQVTVSS”: the “polyreactivity (PSR sort gate)” value is reported as “low polyreactivity”.

Consider “QVQLVESGGGLVQAGGSLRLSCAASGIISRVYAMGWYRQAPGKERELVAAITRRGSTTYYADSVKGRFTISRDNAKNTVYLQMNSLKPEDTAVYYCAALARYGPRYRGDYWGQGTQVTVSS”, for which the “polyreactivity (PSR sort gate)” value is reported as “high polyreactivity”. On to “QVQLVESGGGLVQAGGSLRLSCAASGIISYLYAMGWYRQAPGKERELVAVIRTSDAITYYADSVKGRFTISRDNAKNTVYLQMISLKPEDTAVYYCAAEDVYEYDYWGQGTQVTVSS”, for which the “polyreactivity (PSR sort gate)” value is on record as “high polyreactivity”.

Consider “QVQLVESGGGLVQAGGSLRLSCAASGIISYLYAMGWYRQAPGKERELVAVIRTSDAITYYADSVKGRFTISRDNAKNTVYLQMNSLKPEDTAVYYCAAEDVYEYDYWGQGTQVTVSS”, for which the “polyreactivity (PSR sort gate)” value is given as “high polyreactivity”. The value for “QVQLVESGGGLVQAGGSLRLSCAASGIISYLYAMGWYRQAPGKERELVAVIRTSDAITYYADSVKGRFTISRDNAKNTVYLQMNSLKPEDTAVYYCNRDRGSIYGWGQGTQVTVSS” was “high polyreactivity”; that for “QVQLVESGGGLVQAGGSLRLSCAASGIIVPYNAMGWYRQEPGKVRYLVSAITSGGSTYYADSVKGRFTISRDNAKNTVYLQMNSMKPEDTAVYYCAKVPLSARRNNQSWAYDYWGQGTQVTVSS” was “low polyreactivity”. Under “QVQLVESGGGLVQAGGSLRLSCAASGIIYAANPMGWYRQAPGKERELVAAISKNGGITYYADSVKGRFTISRDNAKNTVYLQMNSLKPEDTAVYYCAARWRQTRRYYYWGQGTQVTVSS” stands “high polyreactivity”; under “QVQLVESGGGLVQAGGSLRLSCAASGIIYAYYAMGWYRQAPGKERELVAAISRSGGITYYADSVKGRFTISRDNAKNTVYLQMNSLKPEDTAVYYCARYSSRPYDYWGQGTQVTVSS”, “high polyreactivity”; under “QVQLVESGGGLVQAGGSLRLSCAASGILSLYTMGCSIQAPGKERELVAAISFRGGNTYYADSVKGRFTISRDNAKNTVYLQMNSLKPEDTAVYYCNAVTRPWRRGYDYWGQGTQVTVSS”, “high polyreactivity”. Under “QVQLVESGGGLVQAGGSLRLSCAASGIMFFYYAMGWYRQAPGKERELVAAISNSDTSTSYADSVKGRFTISRDNAKNSVYFQMNSLKPEDTAVYYCNADSPSLSGDYWGQGTQVTVSS” stands “low polyreactivity”; under “QVQLVESGGGLVQAGGSLRLSCAASGIMFTLYAMGWYRQAPGKERELVAAISGSGGSTYYAASVKGRFTISRDTAKKTVNLQMNSLKPEDTAVSYCRLAPRYRTGGYWGQGTQVTVSS”, “high polyreactivity”. For “QVQLVESGGGLVQAGGSLRLSCAASGINFGRNAMGWYSQAPGKERELVAAITRRGGRTNYADSVKGRFTISRDNAKNTVYLQMNSLKPEDNAVYYCNAHGRPAEAGYDYWGQATQVTVSS”, the “polyreactivity (PSR sort gate)” value is reported as “high polyreactivity”. Under “QVQLVESGGGLVQAGGSLRLSCAASGINFRQYTMGWFRQAPGKERELVAAITSSGRTYYADSVKGRFTISRDNAKNTVYLQMNSLKPEDTAVYYCAAKGTYRGHDYWGQGTQVTVSS” stands “high polyreactivity”; under “QVQLVESGGGLVQAGGSLRLSCAASGINFRYYAMGWYRQAPGKERELVARISTRGGSTYYADSVKGRFTISRDNAKNTVYLQMNSLKPEDTAVYYCAAVNGLYYHKYGYYWGQGTQVTVSS”, “high polyreactivity”. The value for “QVQLVESGGGLVQAGGSLRLSCAASGINFRYYAMGWYRQATGKERELVADISSDGGTYYADSVKGRFKISRDNAQNTVYLQMNSLKPEDTAVYYCAADYQFYWHYYYWGQGTQVTVSS” was “high polyreactivity”; that for “QVQLVESGGGLVQAGGSLRLSCAASGINFVRNAMGWYRQAPGKERELVAAITGRGVSTYYADSVKGRFTISRDNAKNTVYLQMKSLKPEDTAVYYCAARYSSRGTYPRRYDYWGQGTQVTVSS” was “high polyreactivity”; that for “QVQLVESGGGLVQAGGSLRLSCAASGIPRNTMGWYRQAPGKERELVASISTSGGSTYYADSVKGRFTLSRDNANNTVYLQMNSLKPEDTAVYYCAKKGYASRYFIYDYWGQGTQVTVSS” was “low polyreactivity”.

“QVQLVESGGGLVQAGGSLRLSCAASGISFYEYGMGWYRQAPGKERELVAAITFGGGSTYYADSVKGRFTISRDNAKNTVYLQMNSLKPEDTAVYDCAADRVYWGRVQGYYWGQGTQVTVSS”: the “polyreactivity (PSR sort gate)” value was “low polyreactivity”.

“QVQLVESGGGLVQAGGSLRLSCAASGITFAGYTMGWYRQAPGKERELVAAISWRTGSTYYADSVKGRFTISRDTAKNTVYLQMNSLKPEDTAVYYCAARVPSPYVATYYYWGQGTQVTVSS”: the “polyreactivity (PSR sort gate)” value was “high polyreactivity”. On to “QVQLVESGGGLVQAGGSLRLSCAASGITFAPYAMGRYRQAPGKERELVAAIRGSTTSTYYADSVKGRFTISRDNAKNTVYLQINSLKPEDTAVYYCAAAGWKGLGRFYSWGQGTQVTLSS”, for which the “polyreactivity (PSR sort gate)” value is “high polyreactivity”. Under “QVQLVESGGGLVQAGGSLRLSCAASGITFAQYAMGWYRQAPGKEREVVAGITRSGGSTHYADSVKGRFTISRDNAKNTVYLQMNSLKPEDTAVYYCNARYPYRGKRKPSDYWGQGTQVTVSS” stands “high polyreactivity”; under “QVQLVESGGGLVQAGGSLRLSCAASGITFARYAMGWYRQAPGKERELVAAISQSGGSTYYADSVKGRFTISRDNAKNTVYLQMNSLKPEDTAVYYCNAYYVNYVSNYEYWGQGTQVTVSS”, “high polyreactivity”; under “QVQLVESGGGLVQAGGSLRLSCAASGITFARYAMGWYRQAPGKERELVAAITRSGGSTNYADSVKGRFTISRDNAKNTVYLQMNSLKPEDTAVYYCAAAGYRFRFVYSRYEYWGQGTQVTVSS”, “high polyreactivity”. The value for “QVQLVESGGGLVQAGGSLRLSCAASGITFARYTMGWYRQAPGKERELVAAITWSGGRTYYADSVKGRFTISRDNAKNTVYLQMNSLKPEDTAVYYCNVDLGRYGTSSGASVGYGDYDYWGQGTQVTVSS” was “high polyreactivity”; that for “QVQLVESGGGLVQAGGSLRLSCAASGITFAYNAMGWYRQAPGKERELVATISIGGNTNYADSVKGRFTISRDNAKNTVYLQMNSLKPEDTAVYYCNADFPHEGGFCYWGQGTQVTVSS” was “low polyreactivity”.

As to “QVQLVESGGGLVQAGGSLRLSCAASGITFAYNAMGWYRQEPGKERELVARITSGGRTYYADSVKGRFTISRDNAKNTVYLQMNSLKPEDTAVYYCATPYTSYLYGYDYWGQGTQVTVSS”, the “polyreactivity (PSR sort gate)” value is listed as “low polyreactivity”. As to “QVQLVESGGGLVQAGGSLRLSCAASGITFAYYAMGWYRQAPGKERELVAAIRGGTNTYYADSVKGRFTISRDNAKYTVYLQMNSLKPEDTGVYYCAVRLYLEMDYWGQGTQVTVSS”, the “polyreactivity (PSR sort gate)” value is on record as “high polyreactivity”. Under “QVQLVESGGGLVQAGGSLRLSCAASGITFAYYAMGWYRQAPGKERELVAAISSTGSSTYYADSVKGRFTISRDNAKNTVYLQMNSLKPEDTAVYYCNKLQQYTLSEYWGQGTQVTVSS” stands “high polyreactivity”; under “QVQLVESGGGLVQAGGSLRLSCAASGITFAYYAMGWYRQAPGTEREWVAAISRSGGGTYYADSVKGRFTISRDNAKNTVYLQMNTLIPEDTAVYYCNKDYPYYNSGPWAYKFDYCGQGTQVTVSS”, “high polyreactivity”; under “QVQLVESGGGLVQAGGSLRLSCAASGITFAYYTMGWYRQAPGKERELVAGISSSGGRTYYADSVKGRFTISRDNAKNTVYLQMNSLKPEDTAVYYCAARFGYRGSTYTLTYGYWGQGTQVTVSS”, “high polyreactivity”. Under “QVQLVESGGGLVQAGGSLRLSCAASGITFDAHAMGWYRQAPGKERELVARISSGGSTNYADSVKGRFTISRDNAKNTVYLQMNSLKPEDTAVYYCANSYLYGFDYWGQGTQVTVSS” stands “low polyreactivity”. On to “QVQLVESGGGLVQAGGSLRLSCAASGITFDDYAMGWYRQAPGKERELVAAISVSGGDTYYADSVKGRFTISRDNAKNTVYLQMNSLKPEDSAVYYCAAEEVSPRWYDYWGLGTQVTVSS”, for which the “polyreactivity (PSR sort gate)” value was “low polyreactivity”. The value for “QVQLVESGGGLVQAGGSLRLSCAASGITFDENTMGWYRQAPGKERELVAAITEIGGSTYYADSVKGRFTISRDNAKNTVYLQMNSLKPEDTAVYYCNAARWVVRFVDYEYWGQGTQVTVSS” was “low polyreactivity”; that for “QVQLVESGGGLVQAGGSLRLSCAASGITFDGYAMGWYRQAPGKETELVAANSWSGGRTYYADSVKGRFTISRDNAKNTVYLQMNSLKPEDTAVYYCGVYRRGVVYLLTSGVDYWGQGTQVTVSS” was “high polyreactivity”; that for “QVQLVESGGGLVQAGGSLRLSCAASGITFDGYDMGWYRQAPGKEREMVATIDSGGITYYADSVKGRFTISRDNAKNTVYLQMNSLKPEDTAVYYCNADEWYYNFDIVEFDYWGQGTQVTVSS” was “low polyreactivity”. Consider “QVQLVESGGGLVQAGGSLRLSCAASGITFDHYAMGWYRQAPGKERELVAAITSGGNTNYADSVKGRFTISRDNAKNTVYLQMNSLKPEDTAVYYCNARYDVWYYYWGQGTQVTVSS”, for which the “polyreactivity (PSR sort gate)” value is on record as “high polyreactivity”. “QVQLVESGGGLVQAGGSLRLSCAASGITFDIYAMGWYRQAPGKVRELVAAISGSDGSTYYADSVKGRFTISRDNAKNTVYLQMNSLKPEDTAVYYGAAESEYAGTYESDYWGLGTQVTVSS”: the “polyreactivity (PSR sort gate)” value is on record as “low polyreactivity”.

Values taken from the nanobody polyreactivity screen of Harvey et al. (2022).
